The RNAGym collection of RNA variant scans (doi:10.1073/pnas.2313332121)

B1: TPR t1 (parent)
chain: GACCAAUCUGCCCUCAGAGCUCGAGAACAUCUUCGGAUGCAGAGGAGGCAGGCUUCGGUGGCGCGAUAGCGCCAACGUCCUCAACCUCCAAUGCAUCCCACCACAUGAUGAUGCCUGAAGAGCCUUGGUUUUUUG

Variants of: B1
Test: polymerase ribozyme fitness, log enrichment relative to wild type (log ratio); higher = more active; in vitro selection for triplet polymerase activity
In short: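 Fitness compares each genotype's enrichment to that of the wild type on a logarithmic scale, averaging replicates with inverse-variance weights. The logarithm is base 2. Enrichment came from Illumina sequencing of input and output libraries after one triplicate round of in vitro selection, which included frozen incubation at −7 °C, of PCR-built, transcribed mutant libraries of each subunit of a heterodimeric triplet polymerase ribozyme. Only genotypes with ≥10 input reads and ≥1 read per output were kept.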

Variant	polymerase ribozyme fitness (log ratio)
G47C G48A C72U A91C C97U	-3.42
G47A G58U G110U G120A	-3.22
G47A C82G U106A	-1.42
G47U A50U U59C C73A U78A	-2.43
G47C C53U C70A C124A	-1.6
G47C G52C G120U C123A	-1.92
G47A G69U C98U C99U	-2.9
G48A C72G	-0.135
G48A C72U	-0.785
G48A C72A	-0.519
A46U C101U	-0.308
A46U C101G	-3.57
G47C C102U G110U U133A	-5.04
A46U C56G G120C	-0.234
A46U C82A	-1.42
A46U G71U C89U C115A	-2.17
G48A C53U C80U C124U	0.0289
G45U C97U U112A	-0.0204
A46U A66C	-2.07
A46U G128U	-3.23
G47C A108G U112A	-5.05
G45U U96A U132A	-2.11
A46G G47A G52U	-2.7
A46G C53A C56U	-0.0153

Variant	polymerase ribozyme fitness (log ratio)
A46G C97U U130G	-2.03
A46U A111G	-1.48
G45U U130G	-2.66
G47U C104A U129A	-5.96
G47C A91C G113C	-2.97
A46U G63C C76A C85A C115G	-5.34
G47C G69U C72U	-1.29
G47U G60U	-1.15
G47A C70A C101U	-1.81
A46C C72U A75U C123U	0.328
A46U G77C C115U G122A U130C	-4.76
G45U G71A G93A	-2.09
A46U G120U G135C	-0.818
A46C G120A	-0.00915
G47U A68G C104U	-4.55
A46U G110A	-2.4
G47A G48A U129A	-2.41
G47U A91C G113A U130A	-3.79
G48A C73A	-0.973
G45U G61A C62U C79A	-2.55
A46G C49A	0.0417
A46G C49U	-0.575
G48A G110C	-4.33
G45U G60C U125G U133A	-1.59

Variant	polymerase ribozyme fitness (log ratio)
G47U G61A C123A	-0.25
G45U G69U	-0.706
A46G C56A A91U	-2.49
G45U U54G G77C C123G	0.415
A46U G120U	-0.451
G47C A50U U81C C114U	-4.15
G47A U112A	-0.273
G47U C89U	-3.28
G47U C53G A105G	-4.47
G47C C62G	-4.1
G47U U54A G120A	-0.309
G47A G127C	-2.06
G48A A50U U78A A119G G120C	0.486
G45U G77U C79U C114G	-4.37
A46U C62U	-1.12
A46U C62G	-3.18
G47U U116C	-1.74
A46U G58A A83G A84C	-2.18
G48A C94G	-1.71
A46C G58A C62U	-1.93
G47U U54C C70U U96C U116C U129C	-4.8
A46C G48U C70A G113A	-3.12
G47C G48A	-2.94
G48A C79A U126C	-2.73

Variant	polymerase ribozyme fitness (log ratio)
A46C C104A A118U C123G	-1.15
G47C A84C	-0.862
A46U C64U A66U	-2.06
A46U C76A A84C A100C C124A	-4.99
G48A C124U	1.15
A46U G48A G52A C62A C88U C124U	-7.18
A46C G57U	-0.681
A46C G57C	-0.329
G45U C64U U96A G110A G120C	-4.67
G47A G51U U55A C98A G113C	-7.22
A46C G47A A50G U129A	-3.12
G45U U59G A83G C115U	-5.27
G47C C102A G120U	-3.97
G48A C85G	-2.75
G47A A83U	-0.645
G45U G61U G117U C123A	-2.94
G47U A66U U125G	-3.75
G47U C53A U106C	-0.879
G47U G58A A83C	-2.55
A46G C123U	0.893
G47A G58C G113A A121C U125C U131C	-0.547
G47C U55C C56A G69U C86U C123A U132A	-1.54
A46C C56A G69U	-1.31
G47A A50U G57U C82A	-2.37

Variant	polymerase ribozyme fitness (log ratio)
G45U C72U U78G C101A G122A	-2.81
G47A U54C C97G	-5.9
A46G C56A A100C	-1.41
G47U A50G	-1.99
A46C C49U A111U U133G	-5.19
A46U C88A	-1.18
G47U U96C A118G	-1.69
A46C U87A G93C C115A U116C A119C	-3.74
A46U U106A	-1.09
G47C C70U G93A C124A G127U G135U	-3.66
A46G C73G C82U G93A C104A	-4.85
A46C C53A C72A C86A C124G	0.771
A46U C62G U112G	-2.14
G45U C72G C89G	-3.39
G45U C98A	-6.01
A46C C73A	-1.64
G47C C56A	-2.47
G47A G51U C72U U78C	-5
G47C C49A C70A U106G	-5.44
A46U C56A C115U	-2.68
G45U G63U A84G	-3.63
G47U G71A	-1.21
A46U G71C C73U	-3.63
A46U G48U U112G G135C	-3.81

Variant	polymerase ribozyme fitness (log ratio)
G48A G135U	-1.08
A46U G113U	-3.73
A46G C64U G110U C123G	-1.18
A46U C104A	-2.88
A46G C98U G117C	-5.69
G48A C72A U116C	-1.09
G45U G63U	-2.05
G45U G63C	-2.21
G47C C64U	-2.48
G45U G117C	-4.15
G47A C72U	-0.456
G47A C72A	-0.266
G47C C49G U96A	-2.52
G47A U78A	-1.09
A46G C101A	-0.288
A46U C73U C123G G127A	-1.5
G47A U125G	-2.16
G45U G51U A118G G120U	-7.09
G47C A50C C72U C85G C88G C102U C123U	-7.42
G45U G122A	-1.14
G45U G69A U78A G127C	-4.73
A46G U55G U87C	-0.104
A46U G60C	-0.894
G47U G58U C88U	-2.22

Variant	polymerase ribozyme fitness (log ratio)
G48A C72U C94U G127A	-2.68
G47U A90G	-0.297
A46U C72U U96A G120A	-1.15
A46C G71C	-1.14
A46C G69U	-0.0247
G48A C56G C85G C94A A105G	-6.42
G47C C49A G63U U78C C123G C124U	-4.24
G47A G60U U133G	-0.844
G48A G57A G60U G120A	-0.327
G48A C72A C115A	-0.421
G45U C72G	-1.73
G45U G52A C115U G135U	-4.62
G47C C62G G120C G128A	-5.53
G48A C73U C82G	-0.747
A46U U130G	-1.6
G48A C80U U96A C114U	-3.73
G45U C73U C98U A111G U125A	-6.59
G45U C73A A95U	-1.21
A46G U112A	1.3
A46U G93A A119G U132A	-1.15
G48A C114A	-2.8
G48A C82U U92A G110U	-6.7
A46U G122A	-2.16
